Where “and” joins values, the source holds several entries; their conditions need not be identical. Equal entries are not always repeated.
Assays:
[1] = biological target: T1, human PD-1, full-length, expressed on cells (human (Homo sapiens), UniProt Q15116 25-288); test: cell-based or functional assay
[2] = biological target: T1, human PD-1, full-length, expressed on …; test: cell-based or functional assay; remark: listed apart in the source

T1 sequence (Q15116 25-288): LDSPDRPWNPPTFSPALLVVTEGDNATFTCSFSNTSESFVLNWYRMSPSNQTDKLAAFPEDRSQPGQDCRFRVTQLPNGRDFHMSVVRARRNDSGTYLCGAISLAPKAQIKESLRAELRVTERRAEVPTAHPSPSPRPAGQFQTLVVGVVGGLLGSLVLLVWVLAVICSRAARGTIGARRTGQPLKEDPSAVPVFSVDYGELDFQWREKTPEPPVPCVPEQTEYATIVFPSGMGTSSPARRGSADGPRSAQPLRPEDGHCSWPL

B1: IgG1-PD1 (antibody)
heavy: QVQLVESGGGLVQPGTSLRLSCSVSGFSLYSYNMGWVRQAPGKGLEYIGIISGGTIGHYASWAKGRFTISRDTSKTTLYLQMNSLTTEDTATYFCARAFYDDYDYNVWGPGTLVTVSSASTKGPSVFPLAPSSKSTSGGTAALGCLVKDYFPEPVTVSWNSGALTSGVHTFPAVLQSSGLYSLSSVVTVPSSSLGTQTYICNVNHKPSNTKVDKRVEPKSCDKTHTCPPCPAPEFERGPSVFLFPPKPKDTLMISRTPEVTCVVVDVSHEDPEVKFNWYVDGVEVHNAKTKPREEQYNSTYRVVSVLTVLHQDWLNGKEYKCKVSNKALPAPIEKTISKAKGQPREPQVYTLPPSREEMTKNQVSLTCLVKGFYPSDIAVEWESNGQPENNYKTTPPVLDSDGSFFLYSKLTVDKSRWQQGNVFSCSVMHEALHNHYTQKSLSLSPG
light: AIQLTQSPSSLSASVGGTVTITCQSSQSVYGNNQLSWYQQKPGQPPKLLIYQASKLETGVPSRFRGSGSGTQFTLTISSLQSEDFATYYCAGGYSSSSDTTFGGGTEVVVKRTVAAPSVFIFPPSDEQLKSGTASVVCLLNNFYPREAKVQWKVDNALQSGNSQESVTEQDSKDSTYSLSSTLTLSKADYEKHKVYACEVTHQGLSSPVTKSFNRGEC
For B1, the “EC50 in the antigen-specific proliferation assay (CD8+ T-cell expansion index)” value [1] was 0.0124 µg/mL and 0.0837 nM and the “EC50 of PD-1/PD-L1 checkpoint blockade, bioluminescent cell-based reporter assay” value [2] was 0.165 µg/mL and 1.12 nM.

Source: patent US20230365693A1 (BIONTECH, published 2023)
